Assay results published in patent publication US20090317397A1 (published 2009).
Substitutions are numbered along the chain they refer to. One block for each molecule: values may come before it.

How the values were obtained:
[1] = molecular target: CTLA4Ig fusion protein (human) (UniProt P16410); test: solid phase competition, ^125I-B7Ig (4 nM) on immobilized CTLA4Ig
[2] = molecular target: CTLA4Ig fusion protein (human) (UniProt P16410); test: Scatchard plot of the solid phase competition data, immobilized CTLA4Ig
[3] = molecular target: CTLA4Ig fusion protein (human) (UniProt P16410); test: solid phase binding, 4 nM ^125I-B7Ig on immobilized CTLA4Ig
[4] = molecular target: T1, B7 antigen (B7-1) stably expressed on CHO cells (UniProt P33681 35-288, limits assumed); test: cell enzyme immunoassay on fixed B7-1+ CHO cells
T1 construct: whole, on cells; also called B7+CHO cells; B7 positive CHO cells
T1 sequence (looked up): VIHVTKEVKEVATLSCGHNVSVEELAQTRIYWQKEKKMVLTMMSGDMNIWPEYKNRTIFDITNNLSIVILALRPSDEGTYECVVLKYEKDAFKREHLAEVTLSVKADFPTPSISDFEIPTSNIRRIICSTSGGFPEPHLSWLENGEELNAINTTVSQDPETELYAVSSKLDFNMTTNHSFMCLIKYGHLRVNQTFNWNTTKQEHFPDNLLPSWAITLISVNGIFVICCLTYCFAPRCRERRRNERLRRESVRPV

Molecule: B7Ig fusion protein (from UniProt P33681 35-241) (Fc fusion)
IC50 [1]: 175 nM
Kd [2]: 12 nM
radioactivity bound to wells treated without competitor [3]: 28300 cpm

B1: CTLA4/CD28Ig hybrid fusion protein HS8 (Fc fusion)
chain: NKILVKQSPMLVAYDNAVNLSCKYASPGKATEFRASLHKGLDSAVEVCVVYGNYSQQLQVYSKTGFNCDGKLGNESVTFYLQNLYVNQTDIYFCKIELMYPPPYYLGIGNGTQIHVKGKHLCPS
notes: not shown: human IgG1 hinge (Cys to Ser), CH2, CH3; junction printed as DQE
% of wild type binding [4]: ~60%

B2: CTLA4/CD28Ig hybrid fusion protein HS12 (Fc fusion)
chain: NKILVKQSPMLVAYDNAVNLSCKYSYNLFSREFRASLHKGLDSAVEVCVATYMMGNELQVYSKTGFNCDGKLGNESVTFYLQNLYVNQTDIYFCKIELMYPPPYYLGIGNGTQIHVKGKHLCPS
notes: as for B1
binding result [4]: binds

B6: CTLA4/CD28Ig hybrid fusion protein HS9 (Fc fusion)
chain: NKILVKQSPMLVAYDNAVNLSCKYASPGKATEFRASLHKGLDSAVEVCVVYGNYSQQLQVYSKTGFNCDGKLGNESVTFYLQNLYVNQTDIYFCKIEVMYPPPYLDNEKSNGTIIYVIDPEPCPD
notes: range 1-24;range 33-115; not shown: human IgG1 hinge (Cys to Ser), CH2, CH3; junction printed as DQE
binding result [4]: binds

B9: CTLA4/CD28Ig hybrid fusion protein HS4 (Fc fusion)
chain: NKILVKQSPMLVAYDNAVNLSCKYSYNLFSREFRASLHKGLDSAVEVCVVYGNYSQQLQVYSKTGFNCDGKLGNESVTFYLQNLYVNQTDIYFCKIELMYPPPYYLGIGNGTQIYVIDPEPCPD
notes: range 1-96; also called the CD28Ig analog; not shown: human IgG1 hinge (Cys to Ser), CH2, CH3; junction printed as DQE
fold less binding than wild type CTLA4Ig [4]: ~5 fold
increase in binding relative to CD28Ig [4]: ~2.5 orders of magnitude

B10: CTLA4/CD28Ig hybrid fusion protein HS4-A (Fc fusion)
chain: B1 chain with A25S, S26Y, P27N, G28L, K29F, A30S, T31R
notes: as for B1
% of wild type binding [4]: ~2%

B11: CTLA4/CD28Ig hybrid fusion protein HS7 (Fc fusion)
chain: B1 chain with H115Y, K117I, G118D, K119P, H120E, L121P, S124D
notes: range 1-24;range 33-96; not shown: human IgG1 hinge (Cys to Ser), CH2, CH3; junction printed as DQE
% binding activity relative to CTLA4Ig [4]: ~44%

Next, values leading:

binding result [4]: binds
B3: CTLA4/CD28Ig hybrid fusion protein HS6 (Fc fusion)
chain: AMHVAQPAVVLASSRGIASFVCEYSYNLFSREVRVTVLRQADSQVTEVCAATYMMGNELTFLDDSICTGTSSGNQVNLTIQGLRAMDTGLYICKVELMYPPPYYLGIGNGTQIYVIDPEPCPDSD
notes: range 25-32; not shown: human IgG1 hinge (Cys to Ser), CH2, CH3; junction printed as DQE

binding result [4]: binds
B4: CTLA4/CD28Ig hybrid fusion protein HS11 (Fc fusion)
chain: NKILVKQSPMLVAYDNAVNLSCKYASPGKATEFRASLHKGLDSAVEVCVATYMMGNELQVYSKTGFNCDGKLGNESVTFYLQNLYVNQTDIYFCKIELMYPPPYYLGIGNGTQIYVIDPEPCPD
notes: range 1-24;range 33-49;range 58-96; not shown: human IgG1 hinge (Cys to Ser), CH2, CH3; junction printed as DQE

binding result [4]: binds
B5: CTLA4/CD28Ig hybrid fusion protein HS13 (Fc fusion)
chain: B4 chain with Y115H, I117K, D118G, P119K, E120H, P121L, D124S
notes: as for B1

binding result [4]: binds
B7: CTLA4/CD28Ig hybrid fusion protein HS5 (Fc fusion)
chain: B6 chain with Y116H, I118K, D119G, P120K, E121H, P122L, D125S
notes: CD28Ig itself runs to about 134; not shown: human IgG1 hinge (Cys to Ser), CH2, CH3; junction printed as DQE

binding result [4]: binds
B8: CTLA4/CD28Ig hybrid fusion protein HS4-B (Fc fusion)
chain: B6 chain with A25S, S26Y, P27N, G28L, K29F, A30S, T31R
notes: range 1-115; not shown: human IgG1 hinge (Cys to Ser), CH2, CH3; junction printed as DQE

binding result [4]: binds
B12: CTLA4/CD28Ig hybrid fusion protein HS10 (Fc fusion)
chain: B4 chain with A25S, S26Y, P27N, G28L, K29F, A30S, T31R
notes: range 1-49;range 58-96; not shown: human IgG1 hinge (Cys to Ser), CH2, CH3; junction printed as DQE

binding result [4]: binds
B13: CTLA4/CD28Ig hybrid fusion protein HS2 (Fc fusion)
chain: AMHVAQPAVVLASSRGIASFVCKYSYNLFSREFRASLHKGLDSAVEVCVVYGNYSQQLQVYSKTGFNCDGKLGNESVTFYLQNLYVNQTDIYFCKIELMYPPPYYLGIGNGTQIYVIDPEPCPDSD
notes: range 23-96; not shown: human IgG1 hinge (Cys to Ser), CH2, CH3; junction printed as DQE
